Assay results reported in paper PMC6284025.

Assays:
[1] = biological target: FcγRII (CD32) on human CD4+ T cells (human (endogenous in CD4+ T cells of blood donors)) (UniProt P12318); assay: flow cytometry on cells; activated purified CD4+ T cells incubated with aIgG (100 μg/ml) for 2 h at 37°C, washed three times, stained with biotinylated anti-human IgG Fc and streptavidin PerCP; percent of aIgG+CD4+ T cells
[2] = biological target: FcγRII (CD32) on human CD4+ T cells (human (endogenous in CD4+ T cells of blood donors)) (UniProt P12318)

UniProt P12318, sequence (P12318 34-317): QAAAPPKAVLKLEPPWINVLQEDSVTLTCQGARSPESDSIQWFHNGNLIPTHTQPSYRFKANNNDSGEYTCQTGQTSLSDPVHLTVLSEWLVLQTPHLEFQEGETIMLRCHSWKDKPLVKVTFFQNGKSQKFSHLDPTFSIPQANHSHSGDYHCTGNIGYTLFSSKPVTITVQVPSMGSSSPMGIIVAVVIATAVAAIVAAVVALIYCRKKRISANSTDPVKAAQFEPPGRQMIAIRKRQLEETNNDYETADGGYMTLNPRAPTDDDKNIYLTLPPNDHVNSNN

For “Human IgG (heat-aggregated IgG, used as a model of immune complexes; or immobilised on plastic) (ligand)”, the percent of aIgG+CD4+ T cells [1] was 14.1%, the IFN-γ in the supernatant (ELISA) after cIgG, then suboptimal PHA for 5 d [2] was 4950 pg/mL and the IL-5 in the supernatant (ELISA) after cIgG, then suboptimal PHA for 5 d [2] was 77.9 pg/mL. For the same substance, the IL-10 in the supernatant (ELISA) after cIgG, then suboptimal PHA for 5 d [2] was 143 pg/mL and the TNF-α in the supernatant (ELISA) after cIgG, then suboptimal PHA for 5 d [2] was 59.1 pg/mL.
